Test results from patent US4829052A, “Serine protease inhibitors” (Monsanto Company, priority 1987, dated 1989).

Key:
Human Sputum Elastase = biological target: T1, Human Sputum Elastase (Homo sapiens, UniProt P08246); assay: Elastase assay (spectrophotometric, p-nitroanilide substrate); format: biochemical
T1 construct: Human Sputum Elastase, product No. SE-563 EPC, Inc., Pacific, Mo; USA, Lot 85701; purchased EPC, Inc., Pacific, Mo; USA SE-563; host or cells: human sputum
T1 sequence (P08246 30-267): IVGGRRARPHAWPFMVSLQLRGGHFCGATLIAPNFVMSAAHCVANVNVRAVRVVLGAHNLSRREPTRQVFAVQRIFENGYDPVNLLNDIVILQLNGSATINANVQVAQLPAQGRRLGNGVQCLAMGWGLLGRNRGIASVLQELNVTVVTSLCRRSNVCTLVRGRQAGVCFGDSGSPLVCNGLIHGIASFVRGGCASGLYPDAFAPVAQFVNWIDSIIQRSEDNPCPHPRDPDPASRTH
Description: (§1) The inhibitory activity of the polypeptides of the present invention can be easily assayed using in vitro assays. In these types of spectrophotometric assays the activity of the serine protease is measured toward an appropriate p-nitroanilide substrate in the presence and absence of the peptide inhibitor. The enzyme catalyzed hydrolysis of the peptide p-nitroanilide substrate produces p-nitroanaline which results in an increase in absorbance which is monitored in the range of 405 to 410 nm. The rate of increase in absorbance is a measure of the enzymatic activity and the decrease in this rate relative to a suitable control is used to ascertain inhibition. The general assay procedure and details of the particular assays employed in the examples are provided in the Appendix following the examples. It is also possible to test the polypeptides in a functionally oriented assay that emulates in vivo conditions. Such an inhibition assay for elastase is also described in the Appendix.
(§2) Generalized Protocol Spectrophotometric Assays:
(§3) (1) Pipette 100 μl of enzyme solution into a disposable polystyrene cuvette (1 cm optical path length).
(§4) (2) Add (1900-X) μl of bufferto the cuvette, where X is the volume of test solution in microliters that is added in the next step.
(§5) Add X μl of test solution to the cuvette, where X ranges from 0 μl for the control to a maximum of about 500 μl. Incubate the solution for a period of 1 to 5 minutes at ambient temperature.
(§6) (4) Add 100 μl of substrate solution to the cuvette. Mix the contents by covering the cuvette with a piece of paraffin film and repeatedly inverting for a period of 5 to 15 seconds.
(§7) (5) Record the change in absorbance for about 5 minutes at either 405 or 410 nm, depending on the assay, with a spectrophotometer equipped with a suitable recording device.
(§8) The percent inhibition is calculated from the formula [formula] where (ΔA/min) is the initial rate of absorbance change.
(§9) (7) For more accurate quantitative determinations temperature control of the cuvette holders and the reagent solutions can be instituted.
(§10) (8) The test solution can be crude oxidized peptide prepared as described above, fractions from a chromatographic separation or purified polypeptides.
(A) Buffer Solution - Tris-NaCl buffer consisting of 0.1M Tris-HCl pH 7.5 at 25° C. containing 0.5M NaCl and 0.01% (w/v) NaNs.
(B) Substrate Solution - Dissolve 45.5 mg of N-succinyl-L-alanyl-L-alanyl-L-alanine p-nitroanilide in 1 ml of 1-methyl-2-pyrrolidinone. Add 32 ml of Tris-NaCl buffer.
(C) Enzyme Solution - Human Sputum Elastase, product No. SE-563 EPC, Inc., Pacific, Mo. USA, Lot 85701. Dissolve 1 mg in 1 ml of Tris-NaCl buffer. Store on ice or at 4° C.
(D) Test Solution - See general protocol, number 8.
Procedure: Use the above solutions in the general protocol described above.
(1) Buffer Solution - Tris-NaCl buffer -see Method 1.
(2) Substrate Solution - Dissolve 50 mg of 3-carbomethoxypropionyl-L-alanyl-L-alanyl-L-[…]-L-valine p-nitroanilidein 1 ml of 1-methyl-2-pyrrolidinone. Add 32 ml of Tris-NaCl buffer.
(3) Enzyme Solution - Human sputum elastase, product No. SE-563, EPC, inc. Pacific, Mo. USA, Lot 85071. Prepare a sample at a concentration of 0.01 mg per ml of Tris-NaCl buffer. Store on ice.
(4) Test Solution - general protocol, number 8.
Procedure: Use the above solutions in the general protocol.
(1) Porcine pancreatic elastase may be substituted for human elastase when it is desired to test for an inhibitor of the former.
(2) The activity of an elastase preparation can be calculated as [formula]
(3) The Tris-NaCl buffer also can be pH 8.0 with 0.03% sodium azide. Results should be compared at a single pH.

bovine chymotrypsin = bovine chymotrypsin (Bos taurus, UniProt P00766); assay: Chymotrypsin assay (spectrophotometric, p-nitroanilide substrate); format: biochemical; conditions: inhibitor/protease ratio between about 10/1 and 50/1
Description: as §1, §2, §3, §4, §5, §6, §7, §8, §9, §10
(A) Buffer solution - triethanolamine buffer- See trypsin assay.
(B) Substrate Solution - Dissolve 25 mg of 3-carbomethoxypropionyl-L-arginyl-L-prolyl-L-tyrosine p-nitroanilide (Product No. S-2586, KabiVitrum AB, Stockholm, Sweden) in 23.6 ml of water
(C) Enzyme solution - Dissolve 1 mg of bovine chymotrypsin in 4 ml of 0.001N HCl. Prepare the final dilution by combining 0.1 ml of the stock chymotrypsin solution and 10 ml of 0.001N HCl. Store on ice or at 4° C.
Procedure: Use the above solutions in the general protocol
(2) See note 1 of the cathepsin G assay.
(3) 0.1M Tris-HCl, pH 7.8, 20 mM CaCl2, 0.05% triton X-100 can be substituted for the triethanolamine buffer.

RVCPVILMKCKKDSDCLAECVCLEHGYCG (RVCPVILMKCKKDSDCLAECVCLEHGYCG) [Peptide 8]
titration curve for elastase inhibition (Human Sputum Elastase; FIG. 2): essentially stochiometric inhibition
Inhibitory Activity Elastase (Human Sputum Elastase; inhibitor/protease ratio between about 10/1 and 50/1): ++ (Represents greater than 50% inhibition)
Inhibitory Activity Chymotrypsin (bovine chymotrypsin): - (Represents less than 10% inhibition)
